The record followed here is US5962246A.

Substrate in this data set: O=c1ccn([C@H]2C[C@H](O)[C@@H](COP(=O)(O)OP(=O)(O)OP(=O)(O)O)O2)c(=O)[nH]1
In words: purified protein, by the assay type. To be noted: other: substrate dUTP, 20 mM Tris-HCl pH 7.5, 37° C., purified recombinant DUT-N.

As a reminder, the Km is the concentration of substrate that gives half-maximal velocity.

B1: recombinant human dUTPase nuclear isoform DUT-N (Seq. ID No. 2), expressed in baculovirus/Sf21 insect cells (Homo sapiens) (protein)
chain: MPCSEETPAISPSKRARPAEVGGMQLRFARLSEHATAPTRGSARAAGYDLYSAYDYTIPPMEKAVVKTDIQIALPSGCYGRVAPRSGLAAKHFIDVGAGVIDEDYRGNVGVVLFNFGKEKFEVKKGDRIAQLICERIFYPEIEEVQALDDTERGSGGFGSTGKN
As to B1, the Michaelis-Menten constant (Km) was 2.5 µM.
